Measurements taken from patent US6335013B1, “Methods and materials relating to CD39-like polypeptides” (Hyseq, Inc., priority 1999, dated 2002).
Blank lines part the entries; values can stand above or below the molecule they belong to.

Key:
COS-7 cells [1] = test: Brefeldin A treatment of COS-7 cells transfected with CD39-L4-6His, secretion; assay type: cell-based; conditions: transfected COS-7 cells, 8 hours, increasing dosages
COS-7 cells [2] = test: Brefeldin A treatment of COS-7 cells transfected with CD39-L2, secretion; assay type: cell-based; conditions: transfected COS-7 cells, 8 hours, varying dosages
[3] = Kinetic characteristics of CD39L4 ADP hydrolysis; assay type: biochemical
[4] = ADPase activity of CD39-L4 from transfected COS-7 cells, stimulation by divalent cations; assay type: biochemical; conditions: 1 mM ADP
[5] = Assay for ATPase activity, [33P]Pi released from [γ33P]ATP; assay type: biochemical; conditions: transfected COS-7 cells, 10 μCi [γ33P]ATP, one hour, 37° C.
[6] = ADPase and ATPase activity of CD39L4 wild type and ACR mutants, inorganic phosphate released; assay type: biochemical
[7] = ADPase activity of CD39-L4 forms (insect-expressed, dimer, deglycosylated); assay type: biochemical
[8] = membrane bound or engineered soluble form; cited from earlier work

Molecule: C[C@H]1CCC/C=C/[C@@H]2C[C@H](O)C[C@H]2[C@H](O)/C=C/C(=O)O1 [brefeldin A]
effect on secretion of CD39-L4-6His (COS-7 cells [1]): blocked secretion of CD39-L4-6His
effect on recombinant CD39-L2 in the media (COS-7 cells [2]): decreased in a brefeldin A dose dependent manner

hydrolysis of ADP, in words ([6]; ADP as substrate): hydrolyze ADP
B1: CD39-L4: novel human CD39-like protein, 428 amino acids, amino acid sequence SEQ ID NO: 3; soluble apyrase specific for NDPs (protein)
chain: MATSWGTVFFMLVVSCVCSAVSHRNQQTWFEGIFLSSMCPINVSASTLYGIMFDAGSTGTRIHVYTFVQKMPGQLPILEGEVFDSVKPGLSAFVDQPKQGAETVQGLLEVAKDSIPRSHWKKTPVVLKATAGLRLLPEHKAKALLFEVKEIFRKSPFLVPKGSVSIMDGSDEGILAWVTVNFLTGQLHGHRQETVGTLDLGGASTQITFLPQFEKTLEQTPRGYLTSFEMFNSTYKLYTHSYLGFGLKAARLATLGALETEGTDGHTFRSACLPRWLEAEWIFGGVKYQYGGNQEGEVGFEPCYAEVLRVVRGKLHQPEEVQRGSFYAFSYYYDRAVDTDMIDYEKGGILKVEDFERKAREVCDNLENFTSGSPFLCMDLSYITALLKDGFGFADSTVLQLTKKVNNIETGWALGATFHLLQSLGISH
cooperativity of ADPase activity, in words [3]: does not appear to possess cooperativity
Vmax of ADP hydrolysis ([3]; 15 mM CaCl2, ADP 0.75-18 mM, 37° C., 15 min, 60 ng protein per reaction, Michaelis-Menten fit): 1191 pmol/min
Km ([3]; 15 mM CaCl2, ADP 0.75-18 mM, 37° C., 15 min, Michaelis-Menten fit): 12.7 mM
turnover number, kcat, ADP as substrate ([3]; assuming 60 ng protein and 46000 g/mol): 15.2 s⁻¹
fold increase in ADPase activity over cells transfected with vector alone ([4]; CD39-L4-6His from COS-7 medium on Nickel-NTA resin, 37° C., 30 min, no added cation): 2.3 fold
fold increase in ADPase activity when Ca2+ added ([4]; Ca2+ added): 3.6 fold
fold increase in ADPase activity when Mg2+ added ([4]; Mg2+ added): 6 fold
increase in ATPase activity over cells transfected with vector alone [5]: at least a four fold increase in activity
hydrolysis of ATP, in words ([6]; ATP as substrate): neither the CD39L4 nor the CD39L4 mutant, ACR III, catalyzed hydrolysis

B2: CD39L4 dimer: dimeric form of secreted CD39L4 (protein, UniProt O75356 25-428, looked up)
Nucleoside diphosphate …: NQQTWFEGIFLSSMCPINVSASTLYGIMFDAGSTGTRIHVYTFVQKMPGQLPILEGEVFDSVKPGLSAFVDQPKQGAETVQGLLEVAKDSIPRSHWKKTPVVLKATAGLRLLPEHKAKALLFEVKEIFRKSPFLVPKGSVSIMDGSDEGILAWVTVNFLTGQLHGHRQETVGTLDLGGASTQITFLPQFEKTLEQTPRGYLTSFEMFNSTYKLYTHSYLGFGLKAARLATLGALETEGTDGHTFRSACLPRWLEAEWIFGGVKYQYGGNQEGEVGFEPCYAEVLRVVRGKLHQPEEVQRGSFYAFSYYYDRAVDTDMIDYEKGGILKVEDFERKAREVCDNLENFTSGSPFLCMDLSYITALLKDGFGFADSTVLQLTKKVNNIETGWALGATFHLLQSLGISH
modifications: dimer
enzymatic (ADPase) activity of the dimer ([7]; monomer and dimer enriched sucrose density gradient fractions): does not possess any significant level of enzymatic activity

B3: deglycosylated CD39-L4: CD39-L4 from tunicamycin treated COS-7 cells (protein, UniProt O75356 25-428, looked up)
Nucleoside diphosphate …: NQQTWFEGIFLSSMCPINVSASTLYGIMFDAGSTGTRIHVYTFVQKMPGQLPILEGEVFDSVKPGLSAFVDQPKQGAETVQGLLEVAKDSIPRSHWKKTPVVLKATAGLRLLPEHKAKALLFEVKEIFRKSPFLVPKGSVSIMDGSDEGILAWVTVNFLTGQLHGHRQETVGTLDLGGASTQITFLPQFEKTLEQTPRGYLTSFEMFNSTYKLYTHSYLGFGLKAARLATLGALETEGTDGHTFRSACLPRWLEAEWIFGGVKYQYGGNQEGEVGFEPCYAEVLRVVRGKLHQPEEVQRGSFYAFSYYYDRAVDTDMIDYEKGGILKVEDFERKAREVCDNLENFTSGSPFLCMDLSYITALLKDGFGFADSTVLQLTKKVNNIETGWALGATFHLLQSLGISH
modifications: deglycosylated (tunicamycin)
notes: CD39-L4 from tunicamycin treated COS-7 cells
ADPase activity of deglycosylated protein ([7]; from tunicamycin (5 μg/ml) treated COS-7 cells): comparable to an equal amount of the glycosylated protein

B4: CD39: 510-amino acid cell-surface ecto-apyrase (ATPDase) (protein, UniProt P49961 1-510, looked up)
Ectonucleoside triphosphate …: MEDTKESNVKTFCSKNILAILGFSSIIAVIALLAVGLTQNKALPENVKYGIVLDAGSSHTSLYIYKWPAEKENDTGVVHQVEECRVKGPGISKFVQKVNEIGIYLTDCMERAREVIPRSQHQETPVYLGATAGMRLLRMESEELADRVLDVVERSLSNYPFDFQGARIITGQEEGAYGWITINYLLGKFSQKTRWFSIVPYETNNQETFGALDLGGASTQVTFVPQNQTIESPDNALQFRLYGKDYNVYTHSFLCYGKDQALWQKLAKDIQVASNEILRDPCFHPGYKKVVNVSDLYKTPCTKRFEMTLPFQQFEIQGIGNYQQCHQSILELFNTSYCPYSQCAFNGIFLPPLQGDFGAFSAFYFVMKFLNLTSEKVSQEKVTEMMKKFCAQPWEEIKTSYAGVKEKYLSEYCFSGTYILSLLLQGYHFTADSWEHIHFIGKIQGSDAGWTLGYMLNLTNMIPAEQPLSTPLSHSTYVFLMVLFSLVLFTVAIIGLLIFHKPSYFWKDMV
hydrolysis of ATP and ADP, in words [8]: able to hydrolyze both ATP and ADP substrates efficiently

B5: CD39-L66: isoform (splice variant) of CD39-L4, amino acid sequence SEQ ID NO: 25 (protein)
chain: MATSWGTVFFMLVVSCVCSAVSHRNQQTWFEGIFLSSMCPINVSASTLYGIMFDAGSTGTRIHVYTFVQKMPGQLPILEGEVFDSVKPGLSAFVDQPKQGAETVQGLLEVAKDSIPRSHWKKTPVVLKATAGLRLLPEHKAKALLFEVKEIFRKSPFLVPKGSVSIMDGSDEGILAWVTVNFLTGQLHGHRQETVGTLDLGGASTQITFLPQFEKTLEQTPRGYLTSFEMFNSTYKLYTHSYLGFGLKAARLATLGALETEGTDGHTFRSACLPRWLEAEWIFGGVKYQYGGNQEGEVGFEPCYAEVLRVVRGKLHQPEEVQRGSFYAFSYYYDRAVDTDMIDYEKGGILKVEDFERKAREVCDNLENFTSGSPFLCMDLSYITALLKDGFGFADSTVLQAAVLR
increase in ATPase activity over cells transfected with vector alone [5]: at least a four fold increase in activity
